Source: PMC8902816, “Plasmodium falciparum GBP2 Is a Telomere-Associated Protein That Binds to G-Quadruplex DNA and RNA”

What was measured:
[1] = molecular target: T1, PfGBP2 (Plasmodium falciparum, UniProt Q8IJX3 1-246); assay: EMSA; 50 ng dIdC; not efficiently competed by unlabeled RNA, partially by unlabeled DNA; EMSA: 1 ug GBP2 (bacterial extract), 50 ng dIdC, 20 fmol biotin probe, 20 min, room temperature, 200-fold competitor, 0.5x TBE 4-12% gel; dot blot/ThT: oligos folded in 100 uM (so in the source) Tris pH 7.8 and 100 uM KCl, or LiCl up to 1 M; settings: protein: recombinant; tags: 6xHis at N and C termini (pET-28a+); label: 3' biotin (EMSA)
T1 sequence: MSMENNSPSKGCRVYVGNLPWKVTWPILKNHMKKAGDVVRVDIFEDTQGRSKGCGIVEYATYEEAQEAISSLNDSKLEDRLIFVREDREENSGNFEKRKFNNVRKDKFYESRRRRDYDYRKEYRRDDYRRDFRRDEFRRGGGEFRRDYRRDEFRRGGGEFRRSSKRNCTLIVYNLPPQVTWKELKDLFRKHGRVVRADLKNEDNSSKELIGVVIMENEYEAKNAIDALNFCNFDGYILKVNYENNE

[2] = molecular target: T1, PfGBP2; assay: EMSA; 50 ng dIdC; EMSA: 1 ug GBP2 (bacterial extract), 50 ng dIdC, 20 fmol biotin probe, 20 min, room temperature, 200-fold competitor, 0.5x TBE 4-12% gel; dot blot/ThT: oligos folded in 100 uM (so in the source) Tris pH 7.8 and 100 uM KCl, or LiCl up to 1 M; settings: protein: recombinant; tags: 6xHis at N and C termini (pET-28a+); label: 3' biotin (EMSA)

B1: RNA G-rich 2 (ssRNA)
RNA: UUCAGGGUUCAGGGUUCAGGGUUCAGGGUUC
binding result [1]: binds

B2: A/T only (ssDNA)
DNA: TTAAAATTTATAATTATAAATTTTAA
binding result [2]: no binding

B3: G-rich 1 scram (ssDNA)
DNA: GTGTATGCGTTATGTGTATGCGTGTGAGTG
binding result [2]: no binding
